The target of assay [1] is integrin αvβ6 ectodomain (immobilized) (human, UniProt P06756 31-992; P18564 22-709).
For assay [2], the target named is T1, recombinant human integrin αvβ8 ectodomain (human, UniProt P06756 31-992; P26012 43-681). Kind of assay: cell-based or functional assay.
The target in assay [3] is T2, human integrin αvβ8 on transfected cells (CHO cells stably transfected; HEK 293 cells stably expressing αvβ8) (human, UniProt P06756 31-1048; P26012 43-769).
T2 construct: whole, on cells; also called CHO αvβ8 cells; αvβ8 expressing CHO cells
T2 sequence (P06756 31-1048, chain 1 of 2): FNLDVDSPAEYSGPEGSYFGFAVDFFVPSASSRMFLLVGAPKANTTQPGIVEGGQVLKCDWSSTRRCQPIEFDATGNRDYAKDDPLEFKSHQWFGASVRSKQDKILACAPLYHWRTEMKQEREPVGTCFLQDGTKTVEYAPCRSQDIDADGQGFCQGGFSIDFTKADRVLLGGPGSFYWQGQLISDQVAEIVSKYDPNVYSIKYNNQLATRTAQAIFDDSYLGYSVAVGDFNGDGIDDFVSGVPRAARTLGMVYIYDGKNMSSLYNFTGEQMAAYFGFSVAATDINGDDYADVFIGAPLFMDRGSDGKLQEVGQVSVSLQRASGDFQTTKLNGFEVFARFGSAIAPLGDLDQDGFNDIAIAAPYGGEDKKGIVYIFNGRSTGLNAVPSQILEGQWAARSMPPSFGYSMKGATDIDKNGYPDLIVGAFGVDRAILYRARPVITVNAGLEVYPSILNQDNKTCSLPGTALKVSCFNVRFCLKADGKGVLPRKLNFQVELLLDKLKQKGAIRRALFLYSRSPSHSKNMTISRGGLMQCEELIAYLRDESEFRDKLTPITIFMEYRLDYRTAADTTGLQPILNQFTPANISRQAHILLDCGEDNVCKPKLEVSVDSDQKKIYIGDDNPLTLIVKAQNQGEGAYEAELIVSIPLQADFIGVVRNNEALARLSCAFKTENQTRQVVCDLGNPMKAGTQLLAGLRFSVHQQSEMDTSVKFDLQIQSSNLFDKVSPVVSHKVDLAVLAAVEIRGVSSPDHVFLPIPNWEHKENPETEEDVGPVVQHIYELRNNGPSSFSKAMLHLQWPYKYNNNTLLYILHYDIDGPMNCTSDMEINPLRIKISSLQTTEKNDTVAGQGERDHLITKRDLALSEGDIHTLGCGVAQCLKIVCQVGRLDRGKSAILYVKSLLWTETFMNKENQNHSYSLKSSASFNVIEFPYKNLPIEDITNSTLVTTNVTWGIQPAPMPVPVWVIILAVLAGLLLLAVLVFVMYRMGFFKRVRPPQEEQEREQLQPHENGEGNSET
T2 sequence (P26012 43-769, chain 2 of 2): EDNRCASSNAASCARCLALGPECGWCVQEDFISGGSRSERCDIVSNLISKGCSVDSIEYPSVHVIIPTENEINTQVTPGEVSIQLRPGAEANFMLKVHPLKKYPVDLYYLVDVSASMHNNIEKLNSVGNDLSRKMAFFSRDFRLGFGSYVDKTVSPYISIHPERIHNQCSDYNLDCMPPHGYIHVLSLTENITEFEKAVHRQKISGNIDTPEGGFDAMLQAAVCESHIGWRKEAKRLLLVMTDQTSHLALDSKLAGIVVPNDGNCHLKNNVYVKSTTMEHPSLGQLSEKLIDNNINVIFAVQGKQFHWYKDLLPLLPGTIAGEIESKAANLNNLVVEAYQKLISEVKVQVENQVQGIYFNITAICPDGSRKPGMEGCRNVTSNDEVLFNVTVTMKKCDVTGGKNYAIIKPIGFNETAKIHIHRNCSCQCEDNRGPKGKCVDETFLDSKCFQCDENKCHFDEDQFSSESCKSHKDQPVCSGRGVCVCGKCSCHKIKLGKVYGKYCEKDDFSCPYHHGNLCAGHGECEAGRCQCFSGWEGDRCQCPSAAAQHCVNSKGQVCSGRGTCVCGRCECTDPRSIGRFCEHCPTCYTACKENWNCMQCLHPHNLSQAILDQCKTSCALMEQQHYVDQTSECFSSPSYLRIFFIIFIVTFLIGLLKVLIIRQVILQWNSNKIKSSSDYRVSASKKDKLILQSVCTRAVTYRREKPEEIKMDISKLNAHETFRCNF
Kind of assay: flow cytometry on unfixed CHO cells expressing human αvβ8, antibody titrated, hyperbolic least-squares fit (m3 = KD); curves on D00025 [Cont.]. The procedure: (§1) FIG. 17: Characterization of cell surface binding of humanized affinity optimized anti-αvβ8 antibodies. The cell surface binding affinities of H4C8, H4G9, H4C10, H4G8 compared to HuC6D4F12 expressed as IgG4 (S228P to prevent arm exchange, R409K and L445P to reduce aggregation and to promote stability). […] Cell surface affinity was determined using the least-squares fit model based on the hyperbolic equation y=m1+m2*m0/(m3+m0), where y=MFI at different avb8 concentrations; m0=αvβ8 concentration; m1=MFI with no αvβ8; m2=MFI at saturation; and m3=KD.
(§2) FIG. 18: Binding characteristics of H4C8 of formalin fixed αvβ8 compared to HuC6D4F12 or ADWA11 2.4 (from Pat no. US2020/0079855 A1). CHO αvβ8 expressing cells were fixed in 2% buffered formalin in PBS for 15 min at RT and then stained at the indicated concentrations as described in FIG. 17. The binding affinities to unfixed or formalin fixed cells is shown. Cell surface affinity was determined using the least-squares fit model based on the hyperbolic equation y=m1+m2*m0/(m3+m0), where y=MFI at different αvβ8 concentrations; m0=αvβ8 concentration; m1=MFI with no αvβ8; m2=MFI at saturation; and m3=KD.

The target in assay [4] is T2, human integrin αvβ8 on transfected …. Kind of assay: flow cytometry on CHO cells expressing human αvβ8 fixed in 2% buffered formalin for 15 min, antibody titrated, hyperbolic least-squares fit (m3 = KD); curves on D00025 [Cont.]. The procedure:
as §1, §2

Assay [5] concerns the target T1, recombinant human integrin αvβ8 …. Kind of assay: cell-based or functional assay. This is another data set of the same source.
Assay [6] has the same target. As to the kind of experiment: cell-based or functional assay. The source holds these as a separate data set.
Assay [7] shares this target. As to the kind of experiment: cell-based or functional assay. The source holds these as a separate data set.
Assay [8] shares this target. Kind of assay: cell-based or functional assay. The source holds these as a separate data set.
Assay [9] shares this target. As to the kind of experiment: yeast-displayed scFv titrated with αvβ8 ectodomain, flow cytometry, hyperbolic fit. The method, then:
After induction and screening of the pooled transformants for scFV expression using anti-V5 (clone SV5), the avb8 ectodomain was incubated with the yeast pool, washed and scFV which bound to αvβ8 were detected using anti-human αv (clone 8β8). After multiple rounds of selection by sorting yeast stained under conditions of increasing stringency (Low Ag concentration, short Kon and long Koff), individual clones were isolated, sequenced and tested for binding affinity. Shown are the sequences of VH and VL pairs enriched in the library. The binding affinities of representative yeast clones was determined using a least-squares fit model based on the hyperbolic equation y=m1+m2*m0/(m3+m0), where y=MFI at different αvβ8 concentrations; m0=αvβ8 concentration; m1=MFI with no αvβ8; m2=MFI at saturation; and m3=KD. […]
We then created a scFV yeast display library (Library 3) with degenerate positions coding for novel amino acids (i.e. not in germline human or mouse Ig sequence databases), back mutations to mouse from clone H1.1, as well as final humanization of Fr4 VH and VL based on the human germline (SEQ ID NO: 29, 30 and 32). […] After induction and screening of the pooled transformants for scFV expression using anti-V5 (clone SV5), the αvβ8 ectodomain was incubated with the yeast pool, washed and scFV which bound to αvβ8 were detected using anti-human αv (clone 8β8). […]

Assay [10] shares this target. Kind of assay: MFI against concentration, fit y = m1 + m2*M0/(m3+M0), m3 = KD; paragraph 50 and paragraph 227 give these KD values for the yeast scFv with soluble αvβ8, the legend of FIG. 17 speaks of IgG4 on CHO αvβ8 cells.

T1 sequence (P06756 31-992 limits assumed, chain 1 of 2): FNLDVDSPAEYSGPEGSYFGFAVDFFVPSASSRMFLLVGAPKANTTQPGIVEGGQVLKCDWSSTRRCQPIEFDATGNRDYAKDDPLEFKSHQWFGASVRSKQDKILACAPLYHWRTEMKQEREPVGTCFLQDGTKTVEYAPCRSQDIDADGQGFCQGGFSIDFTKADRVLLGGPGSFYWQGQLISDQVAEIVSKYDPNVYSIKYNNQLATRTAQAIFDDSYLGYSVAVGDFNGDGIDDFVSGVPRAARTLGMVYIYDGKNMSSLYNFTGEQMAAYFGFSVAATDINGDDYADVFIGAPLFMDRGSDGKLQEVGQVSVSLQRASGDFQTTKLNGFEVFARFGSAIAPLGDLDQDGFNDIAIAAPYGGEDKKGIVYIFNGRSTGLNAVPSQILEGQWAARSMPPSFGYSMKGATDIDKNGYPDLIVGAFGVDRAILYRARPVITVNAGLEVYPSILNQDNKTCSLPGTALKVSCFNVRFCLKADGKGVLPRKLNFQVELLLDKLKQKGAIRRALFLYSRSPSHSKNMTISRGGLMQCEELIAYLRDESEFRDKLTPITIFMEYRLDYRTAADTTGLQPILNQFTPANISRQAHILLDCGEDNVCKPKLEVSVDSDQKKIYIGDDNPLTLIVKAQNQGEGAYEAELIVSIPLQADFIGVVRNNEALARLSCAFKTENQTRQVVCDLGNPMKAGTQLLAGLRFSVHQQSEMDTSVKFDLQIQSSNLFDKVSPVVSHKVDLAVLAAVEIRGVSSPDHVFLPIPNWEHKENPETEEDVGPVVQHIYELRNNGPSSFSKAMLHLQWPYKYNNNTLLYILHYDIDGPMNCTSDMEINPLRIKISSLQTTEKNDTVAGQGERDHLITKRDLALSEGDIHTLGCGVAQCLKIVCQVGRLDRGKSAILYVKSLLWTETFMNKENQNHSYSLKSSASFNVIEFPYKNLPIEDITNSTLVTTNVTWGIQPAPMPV
T1 sequence (P26012 43-681 limits assumed, chain 2 of 2): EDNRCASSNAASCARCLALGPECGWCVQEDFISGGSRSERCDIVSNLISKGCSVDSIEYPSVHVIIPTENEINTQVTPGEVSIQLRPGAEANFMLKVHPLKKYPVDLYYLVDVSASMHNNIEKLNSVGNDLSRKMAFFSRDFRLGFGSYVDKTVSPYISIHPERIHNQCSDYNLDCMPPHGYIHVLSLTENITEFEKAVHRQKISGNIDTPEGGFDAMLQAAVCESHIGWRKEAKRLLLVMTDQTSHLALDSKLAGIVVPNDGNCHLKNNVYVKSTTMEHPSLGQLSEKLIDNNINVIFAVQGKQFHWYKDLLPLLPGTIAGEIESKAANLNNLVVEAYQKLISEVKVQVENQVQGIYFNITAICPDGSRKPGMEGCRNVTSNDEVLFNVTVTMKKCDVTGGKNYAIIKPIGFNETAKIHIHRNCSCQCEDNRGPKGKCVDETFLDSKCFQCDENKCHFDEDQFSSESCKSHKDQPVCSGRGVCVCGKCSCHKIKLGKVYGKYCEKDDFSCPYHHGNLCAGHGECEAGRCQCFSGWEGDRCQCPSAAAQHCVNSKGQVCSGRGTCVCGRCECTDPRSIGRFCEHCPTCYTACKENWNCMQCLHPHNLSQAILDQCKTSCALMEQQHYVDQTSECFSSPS
integrin αvβ6 ectodomain (immobilized), sequence (P06756 31-992, chain 1 of 2): as the sequence (P06756 31-992 limits assumed, chain 1 of 2) above
integrin αvβ6 ectodomain (immobilized), sequence (P18564 22-709, chain 2 of 2): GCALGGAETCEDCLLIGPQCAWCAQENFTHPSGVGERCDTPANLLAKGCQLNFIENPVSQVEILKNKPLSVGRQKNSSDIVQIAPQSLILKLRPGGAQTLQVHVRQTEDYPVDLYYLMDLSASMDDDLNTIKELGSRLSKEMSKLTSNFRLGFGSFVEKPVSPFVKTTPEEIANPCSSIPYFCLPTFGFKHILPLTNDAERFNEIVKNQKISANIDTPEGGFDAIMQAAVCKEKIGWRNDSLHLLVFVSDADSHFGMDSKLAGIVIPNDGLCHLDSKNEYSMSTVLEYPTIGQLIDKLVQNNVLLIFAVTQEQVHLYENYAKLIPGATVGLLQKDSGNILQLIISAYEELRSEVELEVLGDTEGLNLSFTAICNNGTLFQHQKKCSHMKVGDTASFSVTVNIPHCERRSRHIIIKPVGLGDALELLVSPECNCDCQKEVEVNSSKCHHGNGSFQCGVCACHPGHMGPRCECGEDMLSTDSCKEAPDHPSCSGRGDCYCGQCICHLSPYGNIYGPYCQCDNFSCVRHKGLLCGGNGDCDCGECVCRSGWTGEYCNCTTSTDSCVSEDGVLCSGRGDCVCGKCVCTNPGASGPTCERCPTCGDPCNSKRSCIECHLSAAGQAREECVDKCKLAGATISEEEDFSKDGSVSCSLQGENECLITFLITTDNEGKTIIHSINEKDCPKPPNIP

On to 3G9 (anti-β6), mouse IgG2a (antibody), for which, in assay [1], the ED50 of the inhibition of αvβ6-mediated TGF-β activation (immobilized human αvβ6, TMLC GARP/L-TGF-β reporter cells) came to 0.22 µg/mL.

B1: ADWA11 2.4 antibody (from US2020/0079855 A1) (antibody, V domains shown)
VH: EVQLVESGGGLVQPGGSLRLSCAASGFNIKDYYMNWVRQAPGKGLEWVGWIDPDQGNTIYEPKFQGRFTISADTSKNSAYLQMNSLRAEDTAVYYCARRLLMDYWGQGTLVTVSS
VL: DIQMTQSPSSLSASVGDRVTITCRSTKSLSHFNGNTYLFWYQQKPGKAPKRLIYYMSSLASGVPSRFSGSGSGTDFTLTISSLQPEDFATYYCQQSLEYPFTFGGGTKVEIKR
In the case of B1, in assay [2], the “EC50 of the inhibition of αvβ8-mediated TGF-β activation (TMLC GARP/TGF-β luciferase reporter cells on αvβ8-coated wells)” value was 274 µg/mL. The dissociation constant Kd amounted to 20 nM in assay [3] and 56 nM in assay [4].

B2: HuF12 IgG2a (antibody)
heavy: QIQLVQSGAEVKKPGASVKISCKASGYTFTKYSMHWVRQAPGQGLEWVARINTETGEPTFADDFRGRFTVTLDTSTSTAYLEIRSLRSDDTAVYFCAIFYYGRDTWGQGTTLTVSSASTKGPSVFPLAPSSKSTSGGTAALGCLVKDYFPEPVTVSWNSGALTSGVHTFPAVLQSSGLYSLSSVVTVPSSSLGTQTYICNVNHKPSNTKVDKKIVPRDCGCKPCICTVPEVSSVFIFPPKPKDVLTITLTPKVTCVVVDISKDDPEVQFSWFVDDVEVHTAQTQPREEQFNSTFRSVSELPIMHQDWLNGKEFKCRVNSAAFPAPIEKTISKTKGRPKAPQVYTIPPPKEQMAKDKVSLTCMITDFFPEDITVEWQWNGQPAENYKNTQPIMDTDGSYFVYSKLNVQKSNWEAGNTFTCSVLHEGLHNHHTEKSLSHSPGK
VL: EIVMTQSPATLSVSPGERVTMSCKSSQSLLHSRSRKNYLAWYQQKPGQAPRLLIYWASTRESGVPARFSGSGSGTEFTLTISSVQSEDFAVYYCKQSYNLLSFGQGTVLEIKR
On to B2, for which the “EC50 of inhibition of αvβ8-mediated TGF-β activation” value in assay [5] was 200 nM. In addition, in assay [6], the “IC50 of the inhibition of TGF-β activation (TMLC GARP/TGF-β1 reporter cells on αvβ8-coated wells)” value was 0.0922 µg/mL. Further, in assay [7], the “IC50 (read off the curve)” value is about 0.3 µg/mL. Also, the “ED50 of the inhibition of αvβ8-mediated TGF-β activation (immobilized αvβ8, TMLC GARP/L-TGF-β reporter cells)” value in assay [8] was 0.02 µg/mL.

B3: HuF12 scFv displayed on yeast (scFv, V domains shown)
VH: QIQLVQSGAEVKKPGASVKISCKASGYTFTKYSMHWVRQAPGQGLEWVARINTETGEPTFADDFRGRFTVTLDTSTSTAYLEIRSLRSDDTAVYFCAIFYYGRDTWGQGTTLTVSS
VL: B2 VL
notes: scFv in vector pYD4 on yeast; also called HuC6D4F12 scFV
In the case of B3, the dissociation constant (Kd) in assay [9] stood at 6.7 nM; in [10] it was 6.05 nM.

(Values after patent publication US20260139057A1 (University of California, published 2026).)
